From paper PMC6962393 (2020)

How the values were obtained:
[1] = biological target: FN-B, recombinant human fibronectin extra domain B (EDB) as a single domain (human); experiment: ELISA
[2] = biological target: FN-67B89, human fibronectin EDB flanked by its surrounding type III domains (human); experiment: ELISA
Sequence of FN-67B89, human fibronectin EDB flanked by its surrounding type III domains (human) (chain, as listed by the source): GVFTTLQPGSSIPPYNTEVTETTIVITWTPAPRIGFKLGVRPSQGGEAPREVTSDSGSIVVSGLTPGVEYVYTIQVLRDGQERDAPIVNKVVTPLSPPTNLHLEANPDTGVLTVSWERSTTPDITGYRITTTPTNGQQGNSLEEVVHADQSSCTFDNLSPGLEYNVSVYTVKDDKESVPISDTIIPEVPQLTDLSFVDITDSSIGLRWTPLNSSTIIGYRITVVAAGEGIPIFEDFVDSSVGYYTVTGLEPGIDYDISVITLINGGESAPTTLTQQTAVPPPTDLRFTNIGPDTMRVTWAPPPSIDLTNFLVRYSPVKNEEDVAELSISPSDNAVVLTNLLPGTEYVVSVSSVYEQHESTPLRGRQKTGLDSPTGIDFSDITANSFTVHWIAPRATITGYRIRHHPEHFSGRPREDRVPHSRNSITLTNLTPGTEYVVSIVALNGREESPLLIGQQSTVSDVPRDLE

Sequence of FN-B, recombinant human fibronectin extra domain B (EDB) as a single domain (human) (chain, as listed by the source): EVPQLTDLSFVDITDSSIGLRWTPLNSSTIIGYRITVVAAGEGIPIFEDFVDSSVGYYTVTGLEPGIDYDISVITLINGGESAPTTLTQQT

Row | Binder | Kd [1] [nM] | Kd [2] [nM]
1 | SVCKQANFVRIRLCRRDSDCPGACICRGNGYCG (designed binder) [Trx-MC-FN-060, Thioredoxin-A fusion of cystine-knot miniprotein MC-FN-060] | 10.3 | 20.4
2 | SVCAHYNTIRVRLCRRDSDCPGACICRGNGYCG (designed binder) [Trx-MC-FN-040, Thioredoxin-A fusion of cystine-knot miniprotein MC-FN-040] | 24 | 29.4
3 | PMCTQRKNRIRLCRRDSDCTGACICRGNGYCG (designed binder) [Trx-MC-FN-010, Thioredoxin-A fusion of cystine-knot miniprotein MC-FN-010] | 6.07 | 10.5
4 | SVCKNVSIMRIRLCRRDSDCPGACICRGNGYCG (designed binder) [Trx-MC-FN-050, Thioredoxin-A fusion of cystine-knot miniprotein MC-FN-050] | 40.5 | 67.8
5 | WKCQPTNGYRIRCRRDSDCPGDCICRGNGYCG (designed binder) [Trx-MC-FN-030, Thioredoxin-A fusion of cystine-knot miniprotein MC-FN-030] | 234 | 232
